Laboratory results as given in US20070196860.

Legend:
[1] = tested on: SEQ ID NO. 41, Ac-SxPGSDDDDD-NH2
[2] = tested on: SEQ ID NO. 27, Ac-SxPGSFRRR-NH2
[3] = tested on: SEQ ID NO. 30, Ac-ALKLSRYPSFdPSxG-NH2
[4] = tested on: SEQ ID NO. 48, Ac-EEEEYIQdPSxG-NH2
[5] = tested on: SEQ ID NO. 42, Ac-SxPGIYAAPFAKKK-NH2

Sequence of MK2 enzyme (P49137 whole entry): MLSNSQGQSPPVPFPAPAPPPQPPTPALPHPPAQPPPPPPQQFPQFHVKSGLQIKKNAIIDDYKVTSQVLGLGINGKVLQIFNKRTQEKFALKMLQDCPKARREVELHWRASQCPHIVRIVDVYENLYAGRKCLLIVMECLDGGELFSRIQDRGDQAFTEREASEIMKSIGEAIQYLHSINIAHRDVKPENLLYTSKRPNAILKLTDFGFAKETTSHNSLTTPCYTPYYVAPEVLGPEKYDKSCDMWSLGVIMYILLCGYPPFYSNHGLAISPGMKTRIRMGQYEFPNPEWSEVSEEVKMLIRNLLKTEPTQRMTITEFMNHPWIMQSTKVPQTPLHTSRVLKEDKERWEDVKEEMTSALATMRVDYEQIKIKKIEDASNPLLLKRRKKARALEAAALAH

For Erk1/2 kinase, the “reaction rate, PDGF-treated NIH3T3 lysate” value [1] was “The PDGF-treated sample showed a reaction rate of 1.55 RFU/sec” and the “reaction rate, control treated NIH3T3 lysate” value [1] was “the control treated sample had a markedly reduced rate of 0.27 RFU/sec”.

MK2 enzyme was tested, and the “fluorescence signal at plateau; cascade reaction started by B-Raf captured from NGF-treated PC12 lysate” value [2] was “fluorescence signals that reached a plateau at 150 minutes of incubation (3200 RFU)”, the “fluorescence signal at plateau; cascade reaction started by ERK1/2 captured from PDGF-treated NIH3T3 lysate” value [2] was “a fluorescence signal of 3000 RFU that reached a plateau at 335 minutes of incubation” and the “fluorescence signal at plateau; cascade reaction started by MEK1 captured from PDGF-treated NIH3T3 lysate” value [2] was “fluorescence signal of 3650 RFU that reached a plateau at 250 minutes of incubation”. The “fluorescence signal at plateau; cascade reaction started by p38 MAPK captured from anisomycin treated RAW lysate” value [2] was “fluorescence signal of 3350 RFU that reached a plateau at 60 minutes of incubation”, the “fluorescence signal; cascade reaction started by ERK1/2 captured from control NIH3T3 lysate” value [2] was “the control group produced fluorescence signal of 845 RFU” and the “fluorescence signal; cascade reaction started by MEK1 captured from control NIH3T3 lysate” value [2] was “the control group produced fluorescence signal of 1050 RFU”. For the same substance, the “fluorescence signal; cascade reaction started by p38 MAPK captured from control RAW lysate” value [2] was “the control group produced fluorescence signal of 1250 RFU”.

For RSK, the “reaction rate, PMA-treated HeLa lysate” value [3] was “The PMA-treated sample showed a reaction rate of 3.17 RFU/sec” and the “reaction rate, control treated HeLa lysate” value [3] was “the control treated sample had a markedly reduced rate of 0.64 RFU/sec”.

With c-Src the “reaction rate, c-Src transfected CEF lysate” value [4] was “The c-Src transfected CEF sample showed a reaction rate of 50 RFU/sec” and the “reaction rate, mock transfected (control) CEF lysate” value [4] was “the control treated sample had a markedly reduced rate of 0.048 RFU/sec”.

For p70-S6K, the “reaction rate, control treated MCF-7 lysate” value [5] was “the control treated sample had a markedly reduced rate of 0.12 RFU/sec” and the “reaction rate, insulin-treated MCF-7 lysate” value [5] was “The insulin-treated sample showed a reaction rate of 1.13 RFU/sec”.
